In patent publication US20240025949A1, “Beta-Arrestin Effectors and Compositions and Methods of Use Thereof” (Trevena, Inc., priority 2021, published 2024):
Where no end group is shown, it is not given here.

Assays:
[1] = target: rat angiotensin 2 type 1 receptor (rat) (UniProt P25095); experiment: cell-based or functional assay
[2] = target: human angiotensin 2 type 1 receptor (human) (UniProt P30556); experiment: cell-based or functional assay
human angiotensin 2 type 1 receptor (human), sequence (P30556 whole entry): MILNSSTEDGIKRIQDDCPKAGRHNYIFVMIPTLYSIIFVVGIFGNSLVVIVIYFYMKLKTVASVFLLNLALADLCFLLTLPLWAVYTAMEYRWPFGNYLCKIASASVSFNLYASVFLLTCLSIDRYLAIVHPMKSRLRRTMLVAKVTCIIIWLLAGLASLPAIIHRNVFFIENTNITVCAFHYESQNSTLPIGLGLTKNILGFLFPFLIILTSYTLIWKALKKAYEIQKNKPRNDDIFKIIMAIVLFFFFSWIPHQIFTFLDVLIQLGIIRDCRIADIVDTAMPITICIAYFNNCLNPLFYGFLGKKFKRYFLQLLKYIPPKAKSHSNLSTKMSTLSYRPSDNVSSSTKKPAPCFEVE

rat angiotensin 2 type 1 receptor (rat), sequence (P25095 whole entry): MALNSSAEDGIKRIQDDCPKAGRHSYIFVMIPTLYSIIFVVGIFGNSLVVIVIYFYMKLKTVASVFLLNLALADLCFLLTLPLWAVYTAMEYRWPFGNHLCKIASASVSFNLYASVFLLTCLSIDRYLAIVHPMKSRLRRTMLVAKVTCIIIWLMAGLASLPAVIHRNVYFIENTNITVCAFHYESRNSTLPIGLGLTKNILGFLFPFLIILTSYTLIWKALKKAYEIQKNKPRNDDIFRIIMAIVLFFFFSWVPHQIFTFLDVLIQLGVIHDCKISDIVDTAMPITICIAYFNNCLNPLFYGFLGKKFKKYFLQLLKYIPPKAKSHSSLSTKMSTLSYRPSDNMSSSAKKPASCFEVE

| Molecule | IP One EC50 [1] | IP One Max [1] | b-arrestin2 EC50 [1] | b-arrestin2 Max [1] | IP One EC50 [2] | b-arrestin2 EC50 [2] | b-arrestin2 Max [2] | IP One Max [2] |
| --- | --- | --- | --- | --- | --- | --- | --- | --- |
| SEQ ID NO: 44 (NMAla-Arg-Val-Tyr-Ile-His-Pro-D-Ala-OH) (peptide) | 0.0082 µM | 14.6% | 0.065 µM | 71.9% | > 10 µM | 0.08 µM | 47.3% | – |
| SEQ ID NO: 66 (N-Me-Glu-Arg-Val-Tyr-Phe-His-Pro-NH2) (peptide) | > 10 µM | – | 10 µM | 58.5% | > 10 µM | 6.7 µM | 30.6% | – |
| RVYYHPI (N-terminal Sar; C-terminal amide) [SEQ ID NO: 15 (Sar-Arg-Val-Tyr-Tyr-His-Pro-Ile-NH2)] | 0.077 µM | 51.1% | 0.23 µM | 62.1% | 0.25 µM | 0.82 µM | 44.3% | 19.3% |
| RVYYHP (N-terminal Sar; C-terminal D-Phe) [SEQ ID NO: 28 (Sar-Arg-Val-Tyr-Tyr-His-Pro-D-Phe-OH)] | 0.064 µM | 24.6% | 0.019 µM | 91.4% | > 10 µM | 0.02 µM | 82.9% | – |
| DRVYYHP-NH2 [SEQ ID NO: 57 (Asp-Arg-Val-Tyr-Tyr-His-Pro-NH2)] | 0.33 µM | 35.3% | 0.45 µM | 64.4% | 0.0036 µM | 0.43 µM | 42.1% | 10% |
| RVYHHPA (N-terminal Sar; C-terminal acid) [SEQ ID NO: 22 (Sar-Arg-Val-Tyr-His-His-Pro-Ala-OH)] | 0.25 µM | 5.2% | 0.027 µM | 74.3% | > 10 µM | 0.27 µM | 54.5% | – |
| RVYYHP (N-terminal Sar; C-terminal amide) [SEQ ID NO: 26 (Sar-Arg-Val-Tyr-Tyr-His-Pro-NH2)] | > 10 µM | – | 0.038 µM | 77.3% | > 10 µM | 0.075 µM | 51.9% | – |
| RVYRHPA (N-terminal Sar; C-terminal acid) [SEQ ID NO: 24 (Sar-Arg-Val-Tyr-Arg-His-Pro-Ala-OH)] | 0.0074 µM | 15.1% | 0.063 µM | 74.1% | > 10 µM | 0.48 µM | 61.3% | – |
| VYIHPF (cyclic) [SEQ ID NO: 38 (Cyclo(Val-Tyr-Ile-His-Pro-Phe))] | 0.92 µM | 20.8% | 2.5 µM | 66.4% | > 10 µM | 0.68 µM | 43.1% | – |
| ARVYIHPA (N-methyl residue; C-terminal acid) [SEQ ID NO: 34 (NMAla-Arg-Val-Tyr-Ile-His-Pro-Ala-OH)] | > 10 µM | – | 0.032 µM | 81.7% | > 10 µM | 0.025 µM | 53% | – |

Other lines, results leading:

| IP One EC50 [1] | IP One Max [1] | b-arrestin2 EC50 [1] | b-arrestin2 Max [1] | IP One EC50 [2] | b-arrestin2 EC50 [2] | b-arrestin2 Max [2] | IP One Max [2] | Molecule |
| --- | --- | --- | --- | --- | --- | --- | --- | --- |
| > 10 µM | – | 0.2 µM | 64.8% | > 10 µM | 0.59 µM | 43.3% | – | SEQ ID NO: 29 (Sar-Arg-Val-OMTyr-Ile-His-Pro-Ala-OH) (peptide) |
| 0.1 µM | 19.2% | 1.9 µM | 32.8% | > 10 µM | 1.2 µM | 39.5% | – | RVYIHPRVYIHPRVYIHP (cyclic) [SEQ ID NO: 36 (Cyclo(Arg-Val-Tyr-Ile-His-Pro-Arg-Val-Tyr-Ile-His-Pro-Arg-Val-Tyr-Ile-His-Pro))] |
| > 10 µM | – | 0.82 µM | 27.8% | > 10 µM | 1.4 µM | 19.5% | – | ERVYYHP-NH2 [SEQ ID NO: 59 (Glu-Arg-Val-Tyr-Tyr-His-Pro-NH2)] |
| > 10 µM | – | 2.1 µM | 60.4% | > 10 µM | 1.2 µM | 37.5% | – | DRVYYHP (N-methyl; C-terminal amide) [SEQ ID NO: 61 (N-Me-Asp-Arg-Val-Tyr-Tyr-His-Pro-NH2)] |
| 0.011 µM | 10.3% | 0.039 µM | 84.9% | > 10 µM | 0.044 µM | 61.2% | – | RVYKHPA (N-terminal Sar; C-terminal acid) [SEQ ID NO: 23 (Sar-Arg-Val-Tyr-Lys-His-Pro-Ala-OH)] |
| > 10 µM | – | 3.6 µM | 86.6% | > 10 µM | > 10 µM | – | – | RVYEHPA (N-terminal Sar; C-terminal acid) [SEQ ID NO: 20 (Sar-Arg-Val-Tyr-Glu-His-Pro-Ala-OH)] |
| 0.092 µM | 24.4% | 0.14 µM | 76.9% | > 10 µM | 0.88 µM | 56.9% | – | RVYEHPI (N-terminal Sar; C-terminal acid) [SEQ ID NO: 16 (Sar-Arg-Val-Tyr-Glu-His-Pro-Ile-OH)] |
| 0.013 µM | 6.2% | 0.037 µM | 75.9% | > 10 µM | 0.1 µM | 58.1% | – | RVYVHPA (N-terminal Me2Gly; C-terminal acid) [SEQ ID NO: 31 (Me2G-Arg-Val-Tyr-Val-His-Pro-Ala-OH)] |
| 1.4 µM | 9.94% | 0.26 µM | 81.1% | > 10 µM | 0.33 µM | 48.7% | – | DRVYYHP (D-residue; C-terminal amide) [SEQ ID NO: 58 (D-Asp-Arg-Val-Tyr-Tyr-His-Pro-NH2)] |
| 0.24 µM | 14.7% | 1.9 µM | 60.7% | > 10 µM | 1.7 µM | 62.3% | – | FVYIHPFVYIHPFVYIHP (cyclic) [SEQ ID NO: 37 (Cyclo(Phe-Val-Tyr-Ile-His-Pro-Phe-Val-Tyr-Ile-His-Pro-Phe-Val-Tyr-Ile-His-Pro))] |
| 0.012 µM | 30.5% | 0.0093 µM | 79.8% | 0.0027 µM | 0.012 µM | 67.9% | 7.1% | RVYIHP (N-terminal Sar; C-terminal norvaline) [SEQ ID NO: 35 (Sar-Arg-Val-Tyr-Ile-His-Pro-NVA-OH)] |
| > 10 µM | – | 0.013 µM | 82.7% | > 10 µM | 0.033 µM | 64.4% | – | RVYFHPA (N-terminal Sar; C-terminal acid) [SEQ ID NO: 21 (Sar-Arg-Val-Tyr-Phe-His-Pro-Ala-OH)] |
| > 10 µM | – | 0.018 µM | 91.2% | > 10 µM | 0.031 µM | 67.9% | – | RVYYHPA (N-terminal Sar; C-terminal acid) [SEQ ID NO: 19 (Sar-Arg-Val-Tyr-Tyr-His-Pro-Ala-OH)] |
| > 10 µM | – | 0.031 µM | 86.9% | > 10 µM | 0.04 µM | 54.9% | – | ARVYVHPA (N-methyl residue; C-terminal acid) [SEQ ID NO: 33 (NMAla-Arg-Val-Tyr-Val-His-Pro-Ala-OH)] |
| > 10 µM | – | 0.18 µM | 79.3% | > 10 µM | 0.34 µM | 44% | – | ERVYYHP (D-residue; C-terminal amide) [SEQ ID NO: 60 (D-Glu-Arg-Val-Tyr-Tyr-His-Pro-NH2)] |
